Test results from IntAct's records for PubMed 12551906.

B1: Dolichyl-phosphate-mannose--protein mannosyltransferase 1 (Saccharomyces cerevisiae), P33775 (parent)
chain: MSEEKTYKRVEQDDPVPELDIKQGPVRPFIVTDPSAELASLRTMVTLKEKLLVACLAVFTAVIRLHGLAWPDSVVFDEVHFGGFASQYIRGTYFMDVHPPLAKMLYAGVASLGGFQGDFDFENIGDSFPSTTPYVLMRFFSASLGALTVILMYMTLRYSGVRMWVALMSAICFAVENSYVTISRYILLDAPLMFFIAAAVYSFKKYEMYPANSLNAYKSLLATGIALGMASSSKWVGLFTVTWVGLLCIWRLWFMIGDLTKSSKSIFKVAFAKLAFLLGVPFALYLVFFYIHFQSLTLDGDGASFFSPEFRSTLKNNKIPQNVVADVGIGSIISLRHLSTMGGYLHSHSHNYPAGSEQQQSTLYPHMDANNDWLLELYNAPGESLTTFQNLTDGTKVRLFHTVTRCRLHSHDHKPPVSESSDWQKEVSCYGYSGFDGDANDDWVVEIDKKNSAPGVAQERVIALDTKFRLRHAMTGCYLFSHEVKLPAWGFEQQEVTCASSGRHDLTLWYVENNSNPLLPEDTKRISYKPASFISKFIESHKKMWHINKNLVEPHVYESQPTSWPFLLRGISYWGENNRNVYLLGNAIVWWAVTAFIGIFGLIVITELFSWQLGKPILKDSKVVNFHVQVIHYLLGFAVHYAPSFLMQRQMFLHHYLPAYYFGILALGHALDIIVSYVFRSKRQMGYAVVITFLAASVYFFKSFSPIIYGTPWTQELCQKSQWLSGWDYNCNTYFSSLEEYKNQTLTKRESQPAATSTVEEITIEGDGPSYEDLMNEDGKKIFKDTEGNELDPEVVKKMLEEEGANILKVEKRAVLE
partner: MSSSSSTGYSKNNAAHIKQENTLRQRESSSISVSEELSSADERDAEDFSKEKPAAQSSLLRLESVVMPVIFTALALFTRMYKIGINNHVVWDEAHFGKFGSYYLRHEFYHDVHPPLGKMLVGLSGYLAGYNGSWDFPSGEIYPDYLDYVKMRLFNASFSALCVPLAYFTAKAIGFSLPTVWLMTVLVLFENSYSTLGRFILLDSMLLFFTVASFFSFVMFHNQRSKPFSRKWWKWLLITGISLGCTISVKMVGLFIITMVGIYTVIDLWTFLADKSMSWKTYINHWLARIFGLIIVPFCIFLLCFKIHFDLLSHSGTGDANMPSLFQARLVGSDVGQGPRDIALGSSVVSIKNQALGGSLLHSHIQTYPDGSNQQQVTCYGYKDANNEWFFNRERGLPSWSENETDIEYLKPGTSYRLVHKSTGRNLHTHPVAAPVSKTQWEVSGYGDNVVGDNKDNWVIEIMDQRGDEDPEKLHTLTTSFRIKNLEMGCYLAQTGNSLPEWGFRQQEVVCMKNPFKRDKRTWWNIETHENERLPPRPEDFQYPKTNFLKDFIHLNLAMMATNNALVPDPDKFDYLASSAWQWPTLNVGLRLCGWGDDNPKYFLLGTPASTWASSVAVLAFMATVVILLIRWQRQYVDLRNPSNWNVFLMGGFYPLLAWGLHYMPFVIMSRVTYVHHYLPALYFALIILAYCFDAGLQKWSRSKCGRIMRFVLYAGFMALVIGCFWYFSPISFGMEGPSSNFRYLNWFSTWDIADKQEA

Variants of: B1
Settings: with pmt2_yeast PMT2, P31382

| effect of a mutation on the interaction | Variant |
| --- | --- |
| decreasing interaction strength | R138K |
| disrupting interaction strength | R138A |
